Assay results published in patent publication US20240092919A1.

target: human GPC3 on cells (human) (UniProt P51654); experiment: cell-based or functional assay

| HepG2 on Incucyte IC50 (M), human TDC, E:T 15:1, 60 h [M] | Huh7 on xCELLigence IC50 (M), human TDC, E:T 15:1, 60 h [M] | IC50 (M), Incucyte human TDC HepG2-Nuclight green assay, E:T 15:1 (Step 2) [M] | IC50 (M), Incucyte human TDC HepG2-Nuclight green assay, E:T 15:1, 72 h [M] | Binder | HepG2 on Incucyte Max % killing, 60 h [%] | Huh7 on xCELLigence Max % killing, 60 h [%] | Max % Killing, Incucyte human TDC HepG2-Nuclight green assay (Step 2) [%] | Max % Killing, Incucyte human TDC HepG2-Nuclight green assay, 72 h [%] |
| --- | --- | --- | --- | --- | --- | --- | --- | --- |
| 5.3e-10 | 2.61e-10 | 4.45e-10 |  | A022600122 (protein) DVQLVESGGGVVQPGGSLRLSCVASGYVHKINFYGWYRQAPGKEREKVAHISIGDQTDYADSAKGRFTISRDESKNTVYLQMNSLRPEDTALYYCRALSRIWPYDYWGQGTLVTVSSGGGGSEVQLVESGGGLVQPGGSLRLSCVASGFTFSSFAMTWVRRPPGKGLEWVATITNGGVTSYRDSVKGRFTISRDNAKNTLYLEMTSLNPEDTAVYICANARRTGPRAPTDIGSYRGQGTLVTVSSGGGGSGGGGSGGGGSGGGGSGGGGSGGGGSGGGGSEVQLVESGGGLVQPGGSLRLSCVASGSIFRSVFSSSTMEWYRQPPGKKRELVARIAPGDGTNYGALYADSVKGRFTISRDDAKKTVDLQMNSLKPEDTGVYFCASGVAWGQGTLVTVSSGGGGSGGGGSGGGGSGGGGSGGGGSGGGGSGGGGSEVQLVESGGGVVQPGGSLRLSCAASGFTFRSFGMSWVRQAPGKGPEWVSSISGSGSDTLYADSVKGRFTISRDNSKNTLYLQMNSLRPEDTALYYCTIGGSLSRSSQGTLVTVSSA | 93 | 101 | 92 |  |
|  |  |  | 1.72e-09 | A022600102 (protein) DVQLVESGGGVVQPGGSLRLSCVASGYVHKINFYGWYRQAPGKEREKVAHISIGDQTDYADSAKGRFTISRDESKNTVYLQMNSLRPEDTALYYCRALSRIWPYDYWGQGTLVTVSSAAAEVQLVESGGGLVQPGGSLRLSCVASGFTFSSFAMTWVRRPPGKGLEWVATITNGGVTSYRDSVKGRFTISRDNAKNTLYLEMTSLNPEDTAVYICANARRTGPRAPTDIGSYRGQGTLVTVSSGGGGSGGGGSGGGGSGGGGSGGGGSGGGGSGGGGSEVQLVESGGGVVQPGGSLRLSCAASGFTFRSFGMSWVRQAPGKGPEWVSSISGSGSDTLYADSVKGRFTISRDNSKNTLYLQMNSLRPEDTALYYCTIGGSLSRSSQGTLVTVSSA |  |  |  | 94 |
|  |  | 4.44e-10 |  | A022600131 (protein) DVQLVESGGGVVQPGGSLRLSCVASGYVHKINFYGWYRQAPGKEREKVAHISIGDQTDYADSAKGRFTISRDESKNTVYLQMNSLRPEDTALYYCRALSRIWPYDYWGQGTLVTVSSGGGGSEVQLVESGGGLVQPGGSLRLSCVASGFTFSSFAMTWVRRPPGKGLEWVATITNGGVTSYRDSVKGRFTISRDNAKNTLYLEMTSLNPEDTAVYICANARRTGPRAPTDIGSYRGQGTLVTVSSGGGGSGGGGSGGGGSGGGGSEVQLVESGGGLVQPGGSLRLSCVASGSIFRSVFSSSTMEWYRQPPGKKRELVARIAPGDGTNYGALYADSVKGRFTISRDDAKKTVDLQMNSLKPEDTGVYFCASGVAWGQGTLVTVSSGGGGSGGGGSGGGGSGGGGSGGGGSGGGGSGGGGSEVQLVESGGGVVQPGGSLRLSCAASGFTFRSFGMSWVRQAPGKGPEWVSSISGSGSDTLYADSVKGRFTISRDNSKNTLYLQMNSLRPEDTALYYCTIGGSLSRSSQGTLVTVSSA |  |  | 94 |  |
|  |  |  | 2.14e-09 | A022600105 (protein) DVQLVESGGGVVQPGGSLRLSCVASGYVHKINFYGWYRQAPGKEREKVAHISIGDQTDYADSAKGRFTISRDESKNTVYLQMNSLRPEDTALYYCRALSRIWPYDYWGQGTLVTVSSGGGGSGGGGSGGGGSGGGGSEVQLVESGGGLVQPGGSLRLSCVASGFTFSSFAMTWVRRPPGKGLEWVATITNGGVTSYRDSVKGRFTISRDNAKNTLYLEMTSLNPEDTAVYICANARRTGPRAPTDIGSYRGQGTLVTVSSGGGGSGGGGSGGGGSGGGGSGGGGSGGGGSGGGGSEVQLVESGGGVVQPGGSLRLSCAASGFTFRSFGMSWVRQAPGKGPEWVSSISGSGSDTLYADSVKGRFTISRDNSKNTLYLQMNSLRPEDTALYYCTIGGSLSRSSQGTLVTVSSA |  |  |  | 85 |
| 1.23e-09 | 7.11e-09 | 5.43e-10 | 2.04e-09 | A022600103 (protein) DVQLVESGGGVVQPGGSLRLSCVASGYVHKINFYGWYRQAPGKEREKVAHISIGDQTDYADSAKGRFTISRDESKNTVYLQMNSLRPEDTALYYCRALSRIWPYDYWGQGTLVTVSSGGGGSEVQLVESGGGLVQPGGSLRLSCVASGFTFSSFAMTWVRRPPGKGLEWVATITNGGVTSYRDSVKGRFTISRDNAKNTLYLEMTSLNPEDTAVYICANARRTGPRAPTDIGSYRGQGTLVTVSSGGGGSGGGGSGGGGSGGGGSGGGGSGGGGSGGGGSEVQLVESGGGVVQPGGSLRLSCAASGFTFRSFGMSWVRQAPGKGPEWVSSISGSGSDTLYADSVKGRFTISRDNSKNTLYLQMNSLRPEDTALYYCTIGGSLSRSSQGTLVTVSSA | 96 | 71 | 90 | 92 |
|  |  |  | 2.13e-09 | A022600104 (protein) DVQLVESGGGVVQPGGSLRLSCVASGYVHKINFYGWYRQAPGKEREKVAHISIGDQTDYADSAKGRFTISRDESKNTVYLQMNSLRPEDTALYYCRALSRIWPYDYWGQGTLVTVSSGGGGSGGGSEVQLVESGGGLVQPGGSLRLSCVASGFTFSSFAMTWVRRPPGKGLEWVATITNGGVTSYRDSVKGRFTISRDNAKNTLYLEMTSLNPEDTAVYICANARRTGPRAPTDIGSYRGQGTLVTVSSGGGGSGGGGSGGGGSGGGGSGGGGSGGGGSGGGGSEVQLVESGGGVVQPGGSLRLSCAASGFTFRSFGMSWVRQAPGKGPEWVSSISGSGSDTLYADSVKGRFTISRDNSKNTLYLQMNSLRPEDTALYYCTIGGSLSRSSQGTLVTVSSA |  |  |  | 90 |
|  |  |  | 1.4e-09 | A022600096 (protein) DVQLVESGGGLVQPGGSLRLSCVASGYVHKINFYGWYRQAPGKEREKVAHISIGDQTDYADSAKGRFTISRDESKNTVYLQMNSLRPEDTALYYCRALSRIWPYDYWGQGTLVTVSSGGGGSGGGGSGGGGSGGGGSGGGGSGGGGSGGGGSEVQLVESGGGLVQPGGSLRLSCVASGFTFSSFAMTWVRRPPGKGLEWVATITNGGVTSYRDSVKGRFTISRDNAKNTLYLEMTSLNPEDTAVYICANARRTGPRAPTDIGSYRGQGTLVTVSSGGGGSGGGGSGGGGSGGGGSGGGGSGGGGSGGGGSEVQLVESGGGVVQPGGSLRLSCAASGFTFRSFGMSWVRQAPGKGPEWVSSISGSGSDTLYADSVKGRFTISRDNSKNTLYLQMNSLRPEDTALYYCTIGGSLSRSSQGTLVTVSSA |  |  |  | 72 |
